One may read the Kd as a measure of binding affinity in units of concentration.

Test [1] addresses gp120 pre-complexed with sCD4 (HIV-1). The experiment in a line: yeast display flow cytometry, gp120 titrated in the presence of sCD4, MFI of antigen binding. (A flow cytometer gives signals particle by particle.)
Test [2] deals with monomeric gp120 (HIV-1) (HIV-1). The experiment in a line: yeast display flow cytometry, gp120 titrated in the absence of sCD4, MFI of antigen binding.

Take “scFv X5 displayed on yeast (X5-pPNLS in EBY100)”: the values for the Kd in test [1] and in test [2] were 1.1 nM and 14.5 nM, respectively.

For the origin of these results see US20100216659A1.
